These results are taken from patent US20230235004A1.

The target of this experiment is recombinant mouse MAdCAM-1 (mouse) (UniProt Q61826). Description: Octet.
recombinant mouse MAdCAM-1 (mouse), sequence (Q61826 22-364 limits assumed): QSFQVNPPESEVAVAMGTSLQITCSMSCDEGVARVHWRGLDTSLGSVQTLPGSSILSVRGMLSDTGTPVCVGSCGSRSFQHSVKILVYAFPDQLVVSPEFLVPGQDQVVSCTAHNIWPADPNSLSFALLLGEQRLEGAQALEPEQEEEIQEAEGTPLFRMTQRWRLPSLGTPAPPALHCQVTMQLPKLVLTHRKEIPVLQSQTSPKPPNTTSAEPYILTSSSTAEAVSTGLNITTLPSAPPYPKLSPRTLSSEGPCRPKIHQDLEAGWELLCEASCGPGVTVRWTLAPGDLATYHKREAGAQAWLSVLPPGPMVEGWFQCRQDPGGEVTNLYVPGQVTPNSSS

B1: MAdCAM antibody Table 1 clone 1 (scFv)
scFv: EVQLLESGGGLVQPGGSLRLSCAASGFTFSSYGMHWVRQAPGKGLEWVAVISDDGSDKYYADSVKGRFTISRDNSKNTLYLQMNSLRAEDTAVYYCTTSKYYYYYGMDVWGQGTTVTVSSGGGGSGGGGSGGGGSGGGGSDIQMTQSPSSLSASVGDRVTITCQASQDISKSLNWYQQKPGKAPKLLIYAASSLQSGVPSRFSGSGSGTDFTLTISSLQPEDFATYYCQQGYSTPLTFGGGTKVEIK
B1: the MAdCAM Octet Binding was 0.16.
